In the supplement of paper PMC9170038:

Test system: MS2 coat protein
Test: apparent KD of MS2 coat protein; designed switch direction (-1 OFF switch, 1 ON switch): -1; higher = weaker reporter binding
How it was run: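 Designed RNA switches were transcribed on Illumina chips by stalled E. coli RNA polymerase and titrated with SNAP-549-labelled MS2 coat protein from 0.7 or 1.5 nM, doubling to 3 µM. Step length ran from 0.8–1.5 h at the lowest concentration to 10–20 min at the highest. The apparent KD is the median over clusters for each design, from curve-fitted normalised cluster fluorescence.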

[1] = Eterna round: R95, input ligand: FMN 200 uM
[2] = Eterna round: R95, input ligand: microRNA oligo, concentration not stated
[3] = Eterna round: R95, input ligand: none
[4] = input ligand: microRNA oligo, concentration not stated

Sequence	apparent KD of MS2 coat protein [1]	apparent KD of MS2 coat protein [2]	apparent KD of MS2 coat protein [3]	apparent KD of MS2 coat protein (input ligand: FMN 200 uM)	apparent KD of MS2 coat protein (input ligand: none)	apparent KD of MS2 coat protein [4]
GAGGGACAUGAGGAUCACCCAUGUGAGGAUAUGUGAGAAGGAUUGGAGAGAAAAGGAAACAGAAGGCGCGGGAG [JR_Exclu1_Sub086] (puzzle: Exclusion 1)	59.5 nM	50.9 nM	54.7 nM			
GAAUAGAGAGGAUAUGCAAUGUAGGUAGUACGAUAUAUCUGACAUGAGGAUCACCCAUGUAGAAGGCUCAGAUC [EX2 #7] (Eterna round: R97, puzzle: Exclusion 2)				40.4 nM	37.9 nM	
CUGUACUGAGGAUAUACAUGAGGAUCACCCAUGUGAUGUAGUGCACGCGUACGUGUACGUAGAAGGCAGUACAG [Mat - Exclusion 3 - Eli Mod - D41] (Eterna round: R97, puzzle: Exclusion 3)				54 nM	20.3 nM	
UGGCUACAUGAGGAUCACCCAUGUCAGGAUAUGCCGUUAAAUUGACAUCAACGUACGGGUAGAAGGGACUGCGU [1st #8] (Eterna round: R97, puzzle: Exclusion 1)				43.2 nM	45.6 nM	
GUUGGUAAGUCAGGAUAUCCCUGUAAUGGCAGCGGAGAAGGGACAUGAGGAUCACCCAUGUGAACCUCCGGCGGGUAAACCCGC [Issoange] (Eterna round: R96, puzzle: Exclusion NG 1)				103 nM	37.1 nM	20.5 nM
GCGCAAACGCCAAAAGGCGAAACAACAUGAGGAUCACCCAUGUAGGAUAUCGAUUGCUUUGCAGUCGAGAAGGACGUAAUGCGC [JL ENG3 3.80 Mod 5] (Eterna round: R96, puzzle: Exclusion NG 3)				12.7 nM	22.1 nM	14.9 nM
UCCCAGCUAGGAUAUACAUGAGGAUCACCCAUGUCGAUCCACGGCACCCGAGUAUUGAGUAGAAGGAGUCAGGA [Eternabot (L2) Solution 69] (Eterna round: R97, puzzle: Exclusion 3)				25.1 nM	23.1 nM	
GCGCCAUCGUGAGAUGGCGUAUAUACAUGAGGAUCACCCAUGUAGGAUAUCGAUUGCUUUGCAGUCGAGAAGGGCAUGUAAUUU [JL ENG3 3.93] (Eterna round: R96, puzzle: Exclusion NG 3)						25.8 nM
UUUAUAUAGUAAGGAUAUGUAUUAUGUUUAUCAACAGAAGGUACUGACAUGAGGAUCACCCAUGUUUUAGUGUGGGCAUGUAGU [JMF's solution 95] (Eterna round: R96, puzzle: Exclusion NG 1)						181 nM
AGUAGUUGUUUCCGUUCUUACAUGAGGAUCACCCAUGUUUCUUGUCGUGCUCGCGUUGCUCGUCAGACUACCUGUUG [salish99_TOv1_r3_062] (puzzle: Sensor v3, turn-off variant 1)	69.8 nM	88.6 nM	105 nM			
UUGGUUAUCCAUGGAAGUAACAUGAGGAUCACCCAUGUAUGUCUAGUUUUUUGUUCGUCAUAGGCCUUUUGUUUGGA [JR_SV3TOV1_Sub022] (puzzle: Sensor v3, turn-off variant 1)	26.8 nM	27.9 nM	30.9 nM			
AAAUAGUGAGGAUAUUAGUUGUACGUCAAUAGACGUAUAAGUGAGAAGGCACAUGAGGAUCACCCAUGUUCCAG [Omei Ex4 Mod of Mat's R95 mod of Omei v9] (Eterna round: R97, puzzle: Exclusion 4)				48.4 nM	22.2 nM	
UUUUUACAUGAGGAUCACCCAUGUCAGGAUAUGAUUAUAUUUUAUUAUUUUAUUUUUUUCAGAAGGGACUAUUA [My solution] (puzzle: Exclusion 1)		80.6 nM				
GCACGAAGUGUAGGAUAUCUGUGCGAUUAGCUCAGAGAAGGACACAUGAGGAUCACCCAUGUGUUCCAGCGAAAGCAAACGUGC [Eli exng1 - 055] (Eterna round: R96, puzzle: Exclusion NG 1)				9.68 nM	12.9 nM	7.78 nM
GCCAGAGCAGGAUAUCUAAUAUCUCACAUGAGGAUCACCCAUGUCUAGCGAAAGCUAGAGGGAGAAGGGCUCUGGC [Mat - Exclusion 5 - Eli mod - D93] (puzzle: Exclusion 5)	28.1 nM	29.4 nM	41.6 nM			
AAAACACAUGAGGAUCACCCAUGUGAGGAUAUGUUCAUGUUCAGCAAACUGAACAUGAACAGAAGGCACAUAAA [JR_Exclusion1_Sub016] (puzzle: Exclusion 1)	44.7 nM	36.5 nM	40.4 nM			
UGUACUAACACGAAAGUGUUAGUACAAUAAGCUUGUGUUACAUGAGGAUCACCCAUGUCCUCAUAAGCUCGUCUUAU [Mat - Sensor v3 - Turn-off var 2 - D51] (puzzle: Sensor v3, turn-off variant 2)	88.2 nM	52.3 nM	99.2 nM			

Sequence	apparent KD of MS2 coat protein [1]	apparent KD of MS2 coat protein [2]	apparent KD of MS2 coat protein [3]	apparent KD of MS2 coat protein (input ligand: FMN 200 uM)	apparent KD of MS2 coat protein (input ligand: none)	apparent KD of MS2 coat protein [4]
UAUGGUAAAGUCAGGAUAUACGUACGUCGUUCUAGGUAGAAGGGACAUGAGGAUCACCCAUGUAUGAUAGUAAA [Ex4 #35] (Eterna round: R97, puzzle: Brourd's mod of Exclusion 4)				36.1 nM	41.6 nM	
GUCAGCUCGUCAGGAUAUACAUGAGGAUCACCCAUGUGGUCAUUAGCAGCUUCGGCUGCAUUAAUGUAGAAGGGACGAGCUGAC [ENG2/8-B1] (Eterna round: R96, puzzle: Exclusion NG 2)				1120 nM	591 nM	357 nM
CUUAUGUGAGGAUAUCAGUAGUGAUACGAUAGUAUUACUGCUGAGAAGGUACAUGAGGAUCACCCAUGUUCCUC [Exclusion 4 - Mod Omei Ex4 344 mod 4 v.1] (puzzle: Exclusion 4)		16.2 nM				
AACUGGACAGGAUAUGUUCUUGAGCACUUGAGGAUCACCCAAGUCAUCAAGAACUCAGGCACAGAAGGGUUUAUGU [salish99_ex5_r4_002] (Eterna round: R97, puzzle: Exclusion 5)				45.9 nM	13.6 nM	
AAACACACAGGAUAUGAGAGGCGGUACAUGAGGAUCACCCAUGUCCUCGGAAAUCAGCGUUCAGAAGGGUGCGGUG [Eternabot (Original) Solution 36] (Eterna round: R97, puzzle: Exclusion 5)				457 nM	171 nM	
AGAAAUGCCCAUGGCCACAAGCUCUUUGCUUGUCUUACUACAUGAGGAUCACCCAUGUAACAUGGGCUCCUGAUAAU [Been] (puzzle: Sensor v3, turn-off variant 2)	12.2 nM	9.19 nM	11.3 nM			
UAUACACAUGAGGAUCACCCAUGUGAGGAUAUGUAAAAAAAACCGACGGUUUUUUUUUACAGAAGGCACAUAUA [JR_Exclusion1_Sub026] (puzzle: Exclusion 1)		52.5 nM				
UGUUGUCGCGCAGGAUAUGAGGAUCACCCAUAUCAGGAUAUCGAAAGAGAAUUUCUGAGGAUCACCCAGAAGGGCGGGACAACU [pwkr exNG2 2xF5 2xFMN.34] (Eterna round: R96, puzzle: Exclusion NG 2)				210 nM	42.9 nM	35.6 nM
GCUUUUCUUUUCCUUUCUUACAUGAGGAUCACCCAUGUUUCUUGUCGUGCUCGCGUUGUUCGUCUGUCUGUCUGUUG [salish99_TOv1_r3_081] (puzzle: Sensor v3, turn-off variant 1)	37.4 nM	35.5 nM	47.6 nM			
GAGUAGUAAGGAUAUGUCUCUGGUGGCUACGGUCACUAGAGGCAGAAGGUACAUGAGGAUCACCCAUGUUUCUC [ExDelusion 9 - Jieux - Exclusion 4] (Eterna round: R97, puzzle: Exclusion 4)				83.1 nM	39.2 nM	
GUGUAACUACACGGGCUCAACAUGAGGAUCACCCAUGUCAUACACGCAAGCUCUUUGCUUGUCUUAUCUGUCCGUGA [Erriusti] (puzzle: Sensor v3, turn-off variant 1)	16.8 nM	16.6 nM	14.5 nM			
CUUUUGUGAGGAUAUCUGGCUUCGAUCGUGAGAUCGAGGCUAGAGAAGGCACAUGAGGAUCACCCAUGUUCCUU [jl-ex4-4.05 salish99 mod] (Eterna round: R97, puzzle: Exclusion 4)				66.1 nM	19.9 nM	
ACUCAGUGAGGAUAUCGCCAGAGAGCCACAACGGCCUCUGAUGAGAAGGCACAUGAGGAUCACCCAUGUAAGCA [EX4 C.2] (Eterna round: R97, puzzle: Exclusion 4)				45.4 nM	252 nM	
AGUACUUACUCGAUAGUGUUAGUACAAUAAGCUUGUGAAACAUGAGGAUCACCCAUGUCCUCAUUAGCUCGUCUUAU [salish99_TOv2_r3_1006] (puzzle: Sensor v3, turn-off variant 2)	206 nM	758 nM	199 nM			
ACUUAUAGAGGAUAUACAGAAUAUUACAUGAGGAUCACCCAUGUUCUUCAAUGUAUAUUUGUAGAAGGCUAAGGAA [EX-5 Malc#7] (Eterna round: R96, puzzle: Exclusion 5)						46.6 nM
AUAAGUAUAUAGGAUAUCUAGCUGGAAACAGCUAGAGAAGGAUGUACAUGAGGAUCACCCAUGUAAAUCAAUAG [Ex6/8-A2] (Eterna round: R97, puzzle: Exclusion 6)				17.9 nM	19.6 nM	
UCCACAUGAGGAUCACCCAUGUAAGGUGAGUAAAAGAAGAGGCAGGAUAUUGAAGCGACCUCGCCCAAGAAGGGCCUCACCAAA [Eternabot solution 11] (Eterna round: R96, puzzle: Exclusion NG 3)				72.2 nM	60.6 nM	44.8 nM
